Data as given in US20250304709A1 (Eli Lilly, published 2025).

Columns and labels:
human L1CAM-hIgG1-Fc [1] = molecular target: T1, human L1CAM-hIgG1-Fc (human, UniProt P32004 20-1120, limits assumed); assay: SPR, Biacore T200, 25 C, MBM captured by human Fab capture kit, target as analyte, 1:1 fit
T1 construct: also called hL1CAM; not shown: human IgG1 Fc
Description: (§1) A human Fab capture kit (Cytiva P/N 28958325) is immobilized on a CM5 chip (Cytiva P/N 29104988) using standard NHS-EDC amine coupling on all four flow cells (Fc). Multispecific binding molecules (“MBM1” of Table 2, with or without conjugated siRNA (denoted by *) as described above) are prepared at 10 μg/mL by dilution into running buffer. Target (e.g., mouse TFR-mIgG1-Fc, mouse L1CAM-hIgG1-Fc and human L1CAM-hIgG1-Fc, respectively) are prepared at final concentrations of 100.0, 25.0, 6.25, 1.56, 0.39, 0.097, 0.024 and 0 (blank) nM by dilution into running buffer.
(§2) Each analysis cycle consists of (1) capturing multispecific binding molecule samples on separate flow cells (Fc2, Fc3 and Fc4); (2) injection of the respective concentration for the blood brain barrier target (e.g., TFR) over all Fc at 10 μL/min for 60 seconds followed by return to buffer flow for 1800 seconds to monitor dissociation phase; (3) injection of each human L1CAM concentration over all Fc at 100 μL/min for 120 seconds followed by return to buffer flow for 1200 seconds to monitor dissociation phase; (4) regeneration of chip surfaces with injection of 10 mM glycine, pH 1.5, for 30 seconds at 10 μL/min over all cells; and (5) equilibration of chip surfaces with a 10 μL (60-sec) injection of HBS-EP+. Data are processed using standard double-referencing and fit to a 1:1 binding model using Biacore T200 Evaluation software, version 2.0.3, to determine the association rate (kₒₙ, M⁻¹s⁻¹ units), dissociation rate (koff, s⁻¹ units), and Rₘₐₓ (RU units). The equilibrium dissociation constant (KD) is calculated from the relationship KD=koff/kₒₙ, and presented in molar units.

mouse L1CAM-hIgG1-Fc [2] = molecular target: T2, mouse L1CAM-hIgG1-Fc (mouse; human, UniProt P11627 20-1123, limits assumed); assay: as above
T2 construct: also called mL1CAM; not shown: human IgG1 Fc
Description: as §1, §2

human L1CAM-hIgG1-Fc [3] = molecular target: T1, human L1CAM-hIgG1-Fc; assay: SPR, Biacore T200, 25 C, MBM captured by human Fab capture kit, KD=koff/kon (column head prints pM; text says molar units)
Description: as §1, §2

mouse L1CAM-hIgG1-Fc [4] = molecular target: T2, mouse L1CAM-hIgG1-Fc; assay: as above
Description: as §1, §2

human L1CAM-hIgG1-Fc [5] = molecular target: T1, human L1CAM-hIgG1-Fc; assay: SPR, Biacore T200, 25 C, MBM captured by human Fab capture kit, target as analyte, 1:1 fit (column head also prints '(10^-4)', not applied a second time)
Description: as §1, §2

mouse L1CAM-hIgG1-Fc [6] = molecular target: T2, mouse L1CAM-hIgG1-Fc; assay: as above
Description: as §1, §2

T2 sequence (P11627 20-1123 limits assumed): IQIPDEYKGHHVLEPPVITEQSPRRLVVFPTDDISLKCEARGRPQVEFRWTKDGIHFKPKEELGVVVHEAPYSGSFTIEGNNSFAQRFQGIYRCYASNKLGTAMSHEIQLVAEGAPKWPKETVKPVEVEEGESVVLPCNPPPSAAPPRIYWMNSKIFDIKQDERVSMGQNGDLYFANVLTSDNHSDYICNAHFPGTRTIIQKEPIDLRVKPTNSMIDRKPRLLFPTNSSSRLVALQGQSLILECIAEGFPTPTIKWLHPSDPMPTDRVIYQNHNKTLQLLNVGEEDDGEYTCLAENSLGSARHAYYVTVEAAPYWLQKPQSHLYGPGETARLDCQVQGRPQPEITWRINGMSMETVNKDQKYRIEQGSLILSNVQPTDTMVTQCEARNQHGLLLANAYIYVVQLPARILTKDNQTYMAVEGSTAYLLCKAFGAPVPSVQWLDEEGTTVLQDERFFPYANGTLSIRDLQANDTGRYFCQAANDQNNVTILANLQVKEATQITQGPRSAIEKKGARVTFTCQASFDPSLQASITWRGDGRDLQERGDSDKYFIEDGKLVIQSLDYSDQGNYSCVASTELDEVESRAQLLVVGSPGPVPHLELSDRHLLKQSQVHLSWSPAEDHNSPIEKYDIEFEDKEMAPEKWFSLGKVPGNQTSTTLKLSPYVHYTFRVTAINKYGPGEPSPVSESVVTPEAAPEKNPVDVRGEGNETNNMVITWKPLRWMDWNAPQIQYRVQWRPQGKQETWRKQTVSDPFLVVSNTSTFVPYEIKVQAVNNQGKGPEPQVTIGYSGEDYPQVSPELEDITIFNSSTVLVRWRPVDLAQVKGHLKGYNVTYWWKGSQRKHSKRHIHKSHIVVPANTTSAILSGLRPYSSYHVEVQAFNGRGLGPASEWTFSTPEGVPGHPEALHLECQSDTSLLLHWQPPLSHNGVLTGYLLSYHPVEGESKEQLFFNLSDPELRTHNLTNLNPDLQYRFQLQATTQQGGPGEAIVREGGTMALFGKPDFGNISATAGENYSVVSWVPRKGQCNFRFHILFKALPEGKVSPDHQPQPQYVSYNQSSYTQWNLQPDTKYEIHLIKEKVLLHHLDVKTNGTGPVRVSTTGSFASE
T1 sequence (P32004 20-1120 limits assumed): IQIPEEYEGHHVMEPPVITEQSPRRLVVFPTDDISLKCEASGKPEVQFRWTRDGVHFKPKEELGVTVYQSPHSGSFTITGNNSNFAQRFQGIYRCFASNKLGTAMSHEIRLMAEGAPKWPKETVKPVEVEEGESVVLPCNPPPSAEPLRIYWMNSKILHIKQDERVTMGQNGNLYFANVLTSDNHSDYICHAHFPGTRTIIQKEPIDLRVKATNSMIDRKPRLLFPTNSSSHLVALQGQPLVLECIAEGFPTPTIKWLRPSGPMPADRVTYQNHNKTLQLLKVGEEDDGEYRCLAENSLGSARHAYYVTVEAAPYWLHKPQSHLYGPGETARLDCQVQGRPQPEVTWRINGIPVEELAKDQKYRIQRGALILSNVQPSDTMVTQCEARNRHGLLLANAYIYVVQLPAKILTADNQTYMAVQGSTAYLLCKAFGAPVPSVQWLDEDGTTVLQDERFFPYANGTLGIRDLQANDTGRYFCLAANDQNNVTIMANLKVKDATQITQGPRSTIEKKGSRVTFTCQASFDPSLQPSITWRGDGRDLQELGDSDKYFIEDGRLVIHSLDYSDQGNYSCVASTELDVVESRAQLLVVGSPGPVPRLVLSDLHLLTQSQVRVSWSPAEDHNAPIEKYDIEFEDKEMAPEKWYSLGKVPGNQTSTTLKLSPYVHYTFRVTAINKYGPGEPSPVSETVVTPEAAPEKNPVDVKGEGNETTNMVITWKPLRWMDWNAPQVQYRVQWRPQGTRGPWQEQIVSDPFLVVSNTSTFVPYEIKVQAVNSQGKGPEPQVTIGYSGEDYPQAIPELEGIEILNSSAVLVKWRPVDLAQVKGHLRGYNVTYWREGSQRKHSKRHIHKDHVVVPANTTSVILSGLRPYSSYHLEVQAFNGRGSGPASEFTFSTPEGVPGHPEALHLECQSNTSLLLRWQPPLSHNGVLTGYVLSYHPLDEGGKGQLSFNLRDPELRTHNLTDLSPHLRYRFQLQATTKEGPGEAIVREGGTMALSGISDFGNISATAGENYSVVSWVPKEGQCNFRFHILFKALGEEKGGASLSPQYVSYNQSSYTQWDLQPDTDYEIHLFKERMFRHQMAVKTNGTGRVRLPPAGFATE

B1: Exemplified multispecific binding molecule MBM1 with conjugated siRNA (MBM1*) (bispecific antibody, human IgG4 S228P, kappa, F234A L235A)
heavy 1: not shown
light 1: ALDMTQTASPVSAAVGGTVTINCQSSQSVYNNNRLAWYQQKPGQPPKLLIYDASTLASGVPSRFKGSGSGTQFTLTISGVQSDDSATYYCQGTYFSSGWSWAFGGGTEVVVKRTVAAPSVFIFPPSDEQLKSGTASVVCLLNNFYPREAKVQWKVDNALQSGNSQESVTEQDSKDSTYSLSSTLTLSKADYEKHKVYACEVTHQGLSSPVTKSFNRGEC
heavy 2: EVQLVESGGGVVQPGRSLRLSCAASGFTFSRFGMHWVRQAPGKGLEWVAFISNDGSNKYYADSVKGRFTISRDNSKNTLYLQMNSLRPEDTAVYYCARGRAYGSGSLFDPWGQGTLVTVSSASTKGPCVFPLAPCSRSTSESTAALGCLVKDYFPEPVTVSWNSGALTSGVHTFPAVLQSSGLYSLSSVVTVPSSSLGTKTYTCNVDHKPSNTKVDKRVESKYGPPCPPCPAPEAAGGPSVFLFPPKPKDTLMISRTPEVTCVVVDVSQEDPEVQFNWYVDGVEVHNAKTKPREEQFNSTYRVVSVLTVLHQDWLNGKEYKCKVSNKGLPSSIEKTISKAKGQPREPQVYTLPPSQEEMTKNQVSLTCLVKGFYPSDIAVEWESNGQPENNYKTTPPVLDSDGSFLLYSKLTVDKSRWQEGNVFSCSVMHEALHNHYTQKSLSLSLG
light 2: DIQMTQSPSSLSASVGDRVTITCKASQGISRFLSWFQQKPGKAPKSLIYAVSSLVDGVPSRFSGSGSGTDFTLTISSLQPEDFATYYCVQYNSYPYGFGGGTKVEIKRTVAAPSVFIFPPSDEQLKSGTASVVCLLNNFYPREAKVQWKVDNALQSGNSQESVTEQDSKDSTYSLSSTLTLSKADYEKHKVYACEVTHQGLSSPVTKSFNRGEC
modifications: conjugated siRNA (denoted by *); site not stated for the SPR sample; elsewhere 'siRNA linked at HC Constant region 1'
notes: Same four chains as MBM1, with siRNA conjugated
B1 gave a kon (human L1CAM-hIgG1-Fc [1]) of 260000 M⁻¹ s⁻¹, a kon (mouse L1CAM-hIgG1-Fc [2]) of 220000 M⁻¹ s⁻¹ and a Kd (human L1CAM-hIgG1-Fc [3]) of 0.89 nM. The Kd (mouse L1CAM-hIgG1-Fc [4]) was 1.2 nM, the koff (human L1CAM-hIgG1-Fc [5]) was 0.00023 s⁻¹ and the koff (mouse L1CAM-hIgG1-Fc [6]) was 0.00027 s⁻¹.

B2: Exemplified multispecific binding molecule MBM1 (heterodimeric IgG antibody, TFR arm and L1CAM arm) (bispecific antibody)
heavy 1: not shown
light 1: ALDMTQTASPVSAAVGGTVTINCQSSQSVYNNNRLAWYQQKPGQPPKLLIYDASTLASGVPSRFKGSGSGTQFTLTISGVQSDDSATYYCQGTYFSSGWSWAFGGGTEVVVKRTVAAPSVFIFPPSDEQLKSGTASVVCLLNNFYPREAKVQWKVDNALQSGNSQESVTEQDSKDSTYSLSSTLTLSKADYEKHKVYACEVTHQGLSSPVTKSFNRGEC
heavy 2: EVQLVESGGGVVQPGRSLRLSCAASGFTFSRFGMHWVRQAPGKGLEWVAFISNDGSNKYYADSVKGRFTISRDNSKNTLYLQMNSLRPEDTAVYYCARGRAYGSGSLFDPWGQGTLVTVSSASTKGPCVFPLAPCSRSTSESTAALGCLVKDYFPEPVTVSWNSGALTSGVHTFPAVLQSSGLYSLSSVVTVPSSSLGTKTYTCNVDHKPSNTKVDKRVESKYGPPCPPCPAPEAAGGPSVFLFPPKPKDTLMISRTPEVTCVVVDVSQEDPEVQFNWYVDGVEVHNAKTKPREEQFNSTYRVVSVLTVLHQDWLNGKEYKCKVSNKGLPSSIEKTISKAKGQPREPQVYTLPPSQEEMTKNQVSLTCLVKGFYPSDIAVEWESNGQPENNYKTTPPVLDSDGSFLLYSKLTVDKSRWQEGNVFSCSVMHEALHNHYTQKSLSLSLG
light 2: DIQMTQSPSSLSASVGDRVTITCKASQGISRFLSWFQQKPGKAPKSLIYAVSSLVDGVPSRFSGSGSGTDFTLTISSLQPEDFATYYCVQYNSYPYGFGGGTKVEIKRTVAAPSVFIFPPSDEQLKSGTASVVCLLNNFYPREAKVQWKVDNALQSGNSQESVTEQDSKDSTYSLSSTLTLSKADYEKHKVYACEVTHQGLSSPVTKSFNRGEC
notes: without siRNA; also called BD1 + BD9
In the case of B2, the kon (human L1CAM-hIgG1-Fc [1]) is reported as 430000 M⁻¹ s⁻¹, the kon (mouse L1CAM-hIgG1-Fc [2]) is reported as 400000 M⁻¹ s⁻¹ and the Kd (human L1CAM-hIgG1-Fc [3]) is reported as 0.27 nM. The Kd (mouse L1CAM-hIgG1-Fc [4]) was 0.51 nM, the koff (human L1CAM-hIgG1-Fc [5]) was 0.00011 s⁻¹ and the koff (mouse L1CAM-hIgG1-Fc [6]) was 0.0002 s⁻¹.
